This note sets out measurements from paper doi:10.1101/2024.08.05.606605v1.

In the data set the test system is O=[N+]([O-])c1ccc(O[C@@H]2O[C@H](CO)[C@@H](O)[C@H](O)[C@H]2O)cc1. In words: purified protein. The conditions noted are these: 50 mM sodium acetate pH 5.5, 55 °C.
Regarding “WT-AtGH1 (Acetivibrio thermocellus ATCC 27405)”, the Km stood at 2420 ± 170 µM and the kcat is 10.08 s⁻¹.
In the same order, the values of “WT-AtGH1 (Acetivibrio thermocellus ATCC 27405; G168W)” are 2230 ± 130 µM and 9.1175 s⁻¹.
In the same order, the values of “WT-AtGH1 (Acetivibrio thermocellus ATCC 27405; G168W/S242L)” are 1320 ± 110 µM and 12.38 s⁻¹.
In the same order, the values of “WT-AtGH1 (Acetivibrio thermocellus ATCC 27405; S242L)” are 1790 ± 110 µM and 7.0875 s⁻¹.
For the substance “WT-AtGH1 (Acetivibrio thermocellus ATCC 27405; S242W)”, the Km amounted to 2100 ± 100 µM and the kcat worked out at 27.115 s⁻¹.
